Assay results taken from US20120189540A1 (STEMLINE THERAPEUTICS, published 2012).
Substitutions are numbered along the chain they refer to.

Key:
[1] = biological target: transferrin receptor (human) (UniProt P02786); assay: cell-based or functional assay
[2] = biological target: IL-3 receptor alpha subunit (IL3Rα, CD123) (human) (UniProt P26951); assay: flow cytometry on ML-1 cells, isotype control-PE at 10 µg/ml [panel ML-1 (1900/cell]
[3] = biological target: T1, IL-3 receptor alpha subunit (IL3Rα, CD123) (human, UniProt P26951 19-378); assay: flow cytometry on TF-1 cells (CD123-expressing), mAb at 0.5 µg/ml, detected with R-PE goat F(ab')2 anti-mouse IgG, MOPC-21 isotype control subtracted [panel A]
T1 construct: whole, on cells; also called IL3Rα chain; alpha subunit of the IL-3 receptor
T1 sequence (P26951 19-378): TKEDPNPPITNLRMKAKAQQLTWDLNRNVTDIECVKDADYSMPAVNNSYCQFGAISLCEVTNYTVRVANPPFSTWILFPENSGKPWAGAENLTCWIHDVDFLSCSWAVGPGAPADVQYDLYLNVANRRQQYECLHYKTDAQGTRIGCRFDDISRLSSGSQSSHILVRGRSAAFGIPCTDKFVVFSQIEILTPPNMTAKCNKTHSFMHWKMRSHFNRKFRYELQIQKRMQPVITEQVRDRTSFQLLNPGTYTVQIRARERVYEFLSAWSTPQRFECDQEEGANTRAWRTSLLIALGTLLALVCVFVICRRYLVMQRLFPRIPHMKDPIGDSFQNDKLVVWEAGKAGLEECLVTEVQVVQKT

Sequence of transferrin receptor (human) (P02786 whole entry): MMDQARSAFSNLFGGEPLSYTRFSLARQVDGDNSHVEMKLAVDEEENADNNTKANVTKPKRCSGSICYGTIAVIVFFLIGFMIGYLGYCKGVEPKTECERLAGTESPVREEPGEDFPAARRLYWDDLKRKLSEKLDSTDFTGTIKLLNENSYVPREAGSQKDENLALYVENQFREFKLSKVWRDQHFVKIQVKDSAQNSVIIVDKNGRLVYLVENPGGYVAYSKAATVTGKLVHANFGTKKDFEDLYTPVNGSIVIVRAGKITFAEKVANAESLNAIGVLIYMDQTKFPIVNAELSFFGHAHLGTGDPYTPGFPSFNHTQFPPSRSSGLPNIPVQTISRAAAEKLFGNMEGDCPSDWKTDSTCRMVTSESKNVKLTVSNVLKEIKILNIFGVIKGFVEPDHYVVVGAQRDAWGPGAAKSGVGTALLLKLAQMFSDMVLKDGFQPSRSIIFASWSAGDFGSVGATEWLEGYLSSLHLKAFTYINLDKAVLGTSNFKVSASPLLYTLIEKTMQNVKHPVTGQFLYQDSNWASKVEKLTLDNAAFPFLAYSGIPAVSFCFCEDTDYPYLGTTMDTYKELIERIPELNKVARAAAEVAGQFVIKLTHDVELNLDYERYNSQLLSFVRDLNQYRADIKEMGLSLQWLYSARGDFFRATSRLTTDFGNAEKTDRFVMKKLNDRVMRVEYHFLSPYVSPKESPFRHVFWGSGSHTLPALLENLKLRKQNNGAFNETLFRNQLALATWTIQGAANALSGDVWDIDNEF
Sequence of IL-3 receptor alpha subunit (IL3Rα, CD123) (human) (P26951 19-378): as the sequence (P26951 19-378) above

HB21(Fv)-PE40 (scFv)
IC50(ng/ml), cytotoxicity (WST-8 cell viability) on ML-1 [1]: 5.2 ng/mL
IC50(ng/ml), cytotoxicity (WST-8 cell viability) on Molm-14 [1]: 60 ng/mL
IC50(ng/ml), cytotoxicity (WST-8 cell viability) on TF-1 [1]: 2.2 ng/mL

isotype control-PE (antibody)
number printed beside the histogram (fluorescence on the FL-2:PE axis, not named on the sheet) [2]: 7.1

B1: monoclonal antibody 26292 (antibody, V domains shown)
VH: QVQLQQPGAELVRPGASVKLSCKASGYTFTSYWMNWVKQRPDQGLEWIGRIDPYDSETHYNQKFKDKAILTVDKSSSTAYMQLSSLTSEDSAVYYCARGNWDDYWGQGTTLTVSS
VL: DVQITQSPSYLAASPGETITINCRASKSISKDLAWYQEKPGKTNKLLIYSGSTLQSGIPSRFSGSGSGTDFTLTISSLEPEDFAMYYCQQHNKYPYTFGGGTKLEIK
binding result [3]: binds

B2: monoclonal antibody 32701 (antibody, V domains shown)
VH: QIQLVQSGPELKKPGETVKISCKTSGYVFTNYGMNWVKQAPGKGFKWMGWMNTNTGEPTSLEDFKGRFAFSLETSASTAYLQINNLKNDDTATYFCARSGGYDPMDYWGQGTSVTVSS
VL: DIVLTQSPASLAVSPGQRATISCRASESVDNYGNTFMHWYQQKPGQPPKLLIYRASNLESGIPARFSGSDSRTDFTLTINPVEADDVATYYCQQSKEDPPTFGAGTKLELK
binding result [3]: binds

B3: monoclonal antibody 32716 (antibody, V domains shown)
VH: QIQLVQSGPELKKPGETVKISCKASGYIFTNYGMNWVKQAPGKSFKWMGWINTYTGESTYSADFKGRFAFSLETSASTAYLHINDLKNEDTATYFCARSGGYDPMDYWGQGTSVTVSS
VL: B2 VL with P15L, D70G, K96N
binding result [3]: binds
